Test results published in patent US20230220458.

System: HhaI restriction endonuclease
Experiment: cleavage_in_vitro
Settings: 37 C 2 h

Row | Sequence | activity (cycles (deltaCq test vs control locus)) (100% ssDNA, digestion impaired) | activity (cycles (deltaCq test vs control locus)) (100% dsDNA, no visible amplification of test locus after digestion)
1 | CGGATAGCGCGGCGGGCGACAGCCCCCCGGATAACCCCGCCGAGGGAGGGGCGCTTGTAAAACCGAGCGGCG [lung cancer test locus, synthetic ssDNA oligonucleotide] | 7.51 | –
2 | CGGATAGCGCGGCGGGCGACAGCCCCCCGGATAACCCCGCCGAGGGAGGGGCGCTTGTAAAACCGAGCGGCG (double strand) [lung cancer test locus, unmethylated genomic dsDNA (A-673)] | – | > 18
